Data as given in patent US20100183625A1, “Treatment of Mucositis with Kallikrein Inhibitors” (Dyax Corp., priority 2009, published 2010).
Read-outs that look alike come from different tables or passages of the source.

Columns and labels:
pKal = target: T1, pKal (Homo sapiens, UniProt P03952); assay: Inhibition screening with 10 nM antibody (as Fab fragments); type: biochemical
T1 construct: two disulfide linked polypeptides; a heavy chain of approximately 52 kDa and a catalytic domain of approximately 34 kDa; host or cells: human plasma
T1 sequence (P03952 391-638 limits assumed): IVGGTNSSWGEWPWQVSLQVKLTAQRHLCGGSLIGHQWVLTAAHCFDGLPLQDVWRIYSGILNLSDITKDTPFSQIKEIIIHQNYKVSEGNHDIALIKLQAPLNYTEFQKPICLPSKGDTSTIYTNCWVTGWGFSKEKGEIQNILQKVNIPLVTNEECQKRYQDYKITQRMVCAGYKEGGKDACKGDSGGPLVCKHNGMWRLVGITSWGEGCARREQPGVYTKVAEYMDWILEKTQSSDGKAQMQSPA
T1 sequence (P03952 20-390 partner limits assumed): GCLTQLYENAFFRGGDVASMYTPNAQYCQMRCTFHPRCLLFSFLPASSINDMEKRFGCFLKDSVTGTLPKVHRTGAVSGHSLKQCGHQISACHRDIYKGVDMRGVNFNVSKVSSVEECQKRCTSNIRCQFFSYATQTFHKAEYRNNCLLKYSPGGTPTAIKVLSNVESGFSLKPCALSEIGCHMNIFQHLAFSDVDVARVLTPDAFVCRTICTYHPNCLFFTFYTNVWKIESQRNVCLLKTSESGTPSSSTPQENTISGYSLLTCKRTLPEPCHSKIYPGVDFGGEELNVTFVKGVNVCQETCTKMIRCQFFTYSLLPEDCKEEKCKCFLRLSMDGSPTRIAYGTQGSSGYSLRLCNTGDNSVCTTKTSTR
Excerpt: The 82 antibodies that were discovered based on improvements in M162-A04 due to modifications in either the CDR1/2 and CDR3 region are shown in Table 12.
The 62 antibodies that were discovered based on improvements in X63-G06 due to modifications in either the CDR1/2 and CDR3 region are shown in Table 13.

[1] = target: T2, human plasma kallikrein (human pKal) (Homo sapiens, UniProt P03952); assay: Ki,app against human pKal by steady state enzyme kinetics (in vitro protease cleavage assay, Pro-Phe-Arg-aminomethylcoumarin substrate); type: biochemical
T2 construct: two disulfide linked polypeptides; a heavy chain of approximately 52 kDa and a catalytic domain of approximately 34 kDa; host or cells: human plasma
T2 sequence (P03952 391-638 limits assumed): as the sequence (P03952 391-638 limits assumed) above
T2 sequence (P03952 20-390 partner limits assumed): as the sequence (P03952 20-390 partner limits assumed) above
Excerpt: The inhibition constant (Ki) provides a measure of inhibitor potency; it is the concentration of inhibitor required to reduce enzyme activity by half and is not dependent on enzyme or substrate concentrations. The apparent Ki (Ki,app) is obtained at different substrate concentrations by measuring the inhibitory effect of different concentrations of inhibitor (e.g., inhibitory binding protein) on the extent of the reaction (e.g., enzyme activity); fitting the change in pseudo-first order rate constant as a function of inhibitor concentration to the Morrison equation (Equation 1) yields an estimate of the apparent Ki value. The Ki is obtained from the y-intercept extracted from a linear regression analysis of a plot of Ki,app versus substrate concentration.
Where v=measured velocity; v0=velocity in the absence of inhibitor; Ki,app=apparent inhibition constant; I=total inhibitor concentration; and E=total enzyme concentration.
The sequence of human plasma kallikrein that was used in selections and subsequent screening of binding proteins is shown below (accession number NP_000883.2). The human plasma kallikrein (86 kDa) that was used was purified from human plasma and activated with factor XIIa by a commercial vendor. Factor XIIa activates prekallikrein by cleaving the polypeptide sequence at a single site (between Arg371-Ile372, cleavage site marked by “/” in the sequence below) to generate active plasma kallikrein, which then consists of two disulfide linked polypeptides; a heavy chain of approximately 52 kDa and a catalytic domain of approximately 34 kDa [Colman and Schmaier, (1997) “Contact System: A Vascular Biology Modulator With Anticoagulant, Profibrinolytic, Antiadhesive, and Proinflammatory Attributes” Blood, 90, 3819-3843]
These antibodies were produced as Fab fragments in small scale (˜20 μg) and tested for inhibition against human pKal in an in vitro protease cleavage assay using Pro-Phe-Arg-aminomethylcoumarin as the synthetic peptide substrate. […] Five antibodies were then expressed in 293T cells and purified by protein A sepharose chromatography. The antibodies were analyzed by SDS-PAGE to determine which of the inhibitory mutants are not cleaved by the host cell protease(s) (data not shown).

mouse pKal = target: T3, mouse pKal (Mus musculus, UniProt P26262); assay: Ki,app against mouse pKal; type: biochemical; details: Table 15
T3 construct: active plasma kallikrein (pkal) has the single polypeptide chain cleaved at a single position
T3 sequence (P26262 391-638 limits assumed): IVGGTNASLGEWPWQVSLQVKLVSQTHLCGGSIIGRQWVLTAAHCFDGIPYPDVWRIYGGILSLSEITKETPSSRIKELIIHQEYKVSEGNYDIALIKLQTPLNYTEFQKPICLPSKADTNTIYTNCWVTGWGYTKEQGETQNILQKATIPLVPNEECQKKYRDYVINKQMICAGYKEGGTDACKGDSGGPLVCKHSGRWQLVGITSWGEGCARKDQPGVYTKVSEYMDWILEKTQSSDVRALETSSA
T3 sequence (P26262 20-390 partner limits assumed): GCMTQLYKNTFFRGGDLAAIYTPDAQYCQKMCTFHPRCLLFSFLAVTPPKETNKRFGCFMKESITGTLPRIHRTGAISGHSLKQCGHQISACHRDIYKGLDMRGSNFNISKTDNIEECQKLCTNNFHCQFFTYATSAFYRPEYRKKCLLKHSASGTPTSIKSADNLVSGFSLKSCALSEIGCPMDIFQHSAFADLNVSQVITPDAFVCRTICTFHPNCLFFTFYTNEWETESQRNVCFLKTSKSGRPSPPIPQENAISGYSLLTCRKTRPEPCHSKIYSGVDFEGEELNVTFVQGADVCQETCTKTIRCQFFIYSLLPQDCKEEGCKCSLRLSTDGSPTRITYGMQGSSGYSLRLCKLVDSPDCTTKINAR
Experimental: Fourth, antibodies were tested for their ability to inhibit pKal from other species, besides human, where the amino acid sequence of pKal has been determined in order to identify amino acids that may account for the differences in inhibition.
Antibodies that inhibit the activity of pKal either bind near the active site and preclude substrate interactions (competitive inhibitors) or that bind away from the active site and induce allosteric changes in the structure of the active site (noncompetitive inhibitors).

[2] = target: T4, biotinylated plasma kallikrein (human pKal) (Homo sapiens, UniProt P03952); assay: Human pKal ELISA (T/B); type: binding; details: ELISA signal of target (biotinylated plasma kallikrein) divided by signal of background (streptavidin); Table 6
T4 construct: two disulfide linked polypeptides; a heavy chain of approximately 52 kDa and a catalytic domain of approximately 34 kDa; host or cells: human plasma
T4 sequence (P03952 391-638 limits assumed): as the sequence (P03952 391-638 limits assumed) above
T4 sequence (P03952 20-390 partner limits assumed): as the sequence (P03952 20-390 partner limits assumed) above

[3] = Table 13, antibodies based on X63-G06
[4] = human pKal, Table 13, antibodies based on X63-G06, read-out: human pKal Ki, app
[5] = Table 6, read-out: Human pKal (Ki, app nM)

% inhibition at 10 nM (pKal; [3]) [%]	Ki [1, 4] [nM]	Ki [1, 5] [nM]	Human pKal ELISA (T/B) [2]	Molecule	also measured
95.6	0.16			M210-C12 (antibody, V domains shown) VL: QDIQMTQSPGTLSLSPGERATLSCRTSQFVNSNYLAWYQQTPGQAPRLLIYGASSRATGIPDRFSGTGYGTDFTLTISRLEPEDYGTYYCQQSSRTPWTFGQGTRVEIK VH: EVQLLESGGGLVQPGGSLRLSCAASGFTFSHYLMTWVRQAPGKGLEWVSYISPSGGHTIYADSVKGRFTISRDNSKNTLYLQMNSLRAEDTAVYYCARVAQGIAARSRTSSVDQWGQGTLVTVSSASTKGPSVFPLAPSSKS	
97.6	0.09			M209-F04 (antibody, V domains shown) VL: QDIQMTQSPGTLSLSPGERATLSCRTSQFVNSNYLAWYQQTPGQAPRLLIYGASSRATGIPDRFSGTGYGTDFTLTISRLEPEDYGTYYCQQSSRTPWTFGQGTRVEIK VH: EVQLLESGGGLVQPGGSLRLSCAASGFTFSHYLMTWVRQAPGKGLEWVSYISPSGGHTIYADSVKGRFTISRDNSKNTLYLQMNSLRAEDTAVYYCARVARGIAARSRTSYLDQWGQGTLVTVSSASTKGPSVFPLAPSSKS	
92.6	0.2			M206-F01 (antibody, V domains shown) VL: QDIQMTQSPGTLSLSPGERATLSCRTSQFVNSNYLAWYQQTPGQAPRLLIYGASSRATGIPDRFSGTGYGTDFTLTISRLEPEDYGTYYCQQSSRTPWTFGQGTRVEIK VH: EVQLLESGGGLVQPGGSLRLSCAASGFTFSGYMMVWVRQAPGKGLEWVSRISPSGGPTIYADSVKGRFTISRDNSKNTLYLQMNSLRAEDTAVYYCARVARGIAARSRTSYFDYWGQGTLVTVSSASTKGPSVFPLAPSSKS	

Further lines, the molecule ahead of its results:

Molecule	% inhibition at 10 nM (pKal; [3]) [%]	Ki [1, 4] [nM]	Ki [1, 5] [nM]	Human pKal ELISA (T/B) [2]	also measured
M202-A12 (antibody, V domains shown) VL: QDIQMTQSPSTLSASVGDRVTITCRASQSISSWLAWYQQKPGKAPNLLIYKASTLESGVPSRFSGSGSGTEFTLTISSLQPDDFATYYCQQYNTYWTFGQGTKVEIK VH: EVQLLESGGGLVQPGGSLRLSCAASGFTFSHYIMMWVRQAPGKGLEWVSGIYSSGGITVYADSVKGRFTISRDNSKNTLYLQMNSLRAEDTAVYYCAYQRTGVPRRDSFNIWGQGTMVTVSSASTKGPSVFPLAPSSKS					% inhibition at 10 nM (pKal; Table 12, antibodies based on M162-A04): 97.5%; Ki ([1]; human pKal, Table 12, antibodies based on M162-A04, read-out: human pKal Ki, app): 0.2 nM
M29-D09: antibody inhibitor of pKal; HV-CDR3 GSYDYIWGFYSDH (antibody, V domains shown) VL: QSALTQPPTVSVSPGQTARITCSGNKLGDKYVAWYQQKPGQSPMLVIYQDTKRPSAIPERFSGSNSANTATLSISGTQALDEADYYCQAWDSSIVIFGGGTRLTVL VH: EVQLLESGGGLVQPGGSLRLSCAASGFTFSWYTMVWVRQAPGKGLEWVSYIYPSGGATFYADSVKGRFTISRDNSKNTLYLQMNSLRAEDTAVYYCAMGSYDYIWGFYSDHWGQGTLVTVSSASTKGPSVFPLAPSSKS					mouse Ki, app (nM) (mouse pKal): no
M137-E12: antibody inhibitor of pKal; HV-CDR3 … (antibody, V domains shown) VL: QSVLIQPPSVSGIPGQRVTISCSGNNSNFGSNTVTWYQQLPGTAPKLLIYSDSRRPSGVPDRFSGSRSDTSASLAISGLQSEDEAEYHCAAWDDSLNGVFGGGTKLTVL VH: EVQLLESGGGLVQPGGSLRLSCAASGFTFSDYRMQWVRQAPGKGLEWVSVIVPSGGNTMYADSVKGRFTISRDNSKNTLYLQMNSLRAEDTAVYYCARGGPGSSIAARRAPTGYYGMDVWGQGTTVTVSSASTKGPSVFPLAPSSKS			79	4.5	
M12-D05: antibody inhibitor of pKal; HV-CDR3 EGLLWFGENAFDI (antibody, V domains shown) VL: QSVLTQPPSVSVSPGQTATITCSGDQLGDKYVGWYQQKPGQSPILVIYQDTKRPSGIPERFSGSNSGNTATLTISGTHTVDEAHYYCQAWDTSTAGFGGGTKLTVL VH: EVQLLESGGGLVQPGGSLRLSCAASGFTFSWYTMVWVRQAPGKGLEWVSRIYPSGGWTKYADSVKGRFTISRDNSKNTLYLQMNSLRAEDTATYYCAREGLLWFGENAFDIWGQGTMVTVSSASTKGPSVFPLAPSSKS			5.2	48.5	
M28-B11: antibody inhibitor of pKal; HV-CDR3 EGLLWFGENAFDI (antibody, V domains shown) VL: QSVLTQPPSVSVSPGQTATITCSGDQLGDKYVGWYQQKPGQSPILVIYQDTKRPSGIPERFSGSNSGNTATLTISGTHTVDEAHYYCQAWDTSTAGFGGGTKLTVL VH: EVQLLESGGGLVQPGGSLRLSCAASGFTFSWYTMVWVRQAPGKGLEWVSRIYPSGGWTKYADSVKGRFTISRDNSKNTLYLQMNSLRAEDTATYYCAREGLLWFGENAFDIWGQGTMVTVSSASTKGPSVFPLAPSSKS			5.5	33.3	
